# Results as given in publication PMC12416549 (2024).
# Substitutions are numbered along the chain they refer to. Numbers in names are those of the source.
# T1: TNFR1 (Homo sapiens, UniProt P19438)
# T1 chain: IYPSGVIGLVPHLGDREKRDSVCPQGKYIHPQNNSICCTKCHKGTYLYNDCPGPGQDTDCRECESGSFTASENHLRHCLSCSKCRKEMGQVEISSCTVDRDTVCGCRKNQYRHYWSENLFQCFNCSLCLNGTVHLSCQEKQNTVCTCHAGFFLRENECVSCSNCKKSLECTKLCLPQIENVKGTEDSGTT
# B1: K56N (designed binder)
# chain: SMEEEVEKAAKEYEKKKKEAIEKHLEKLKAKDKEAAERFLKELEEAAKEYAKDEANTMSEEEAKRRAKKYKEKVLLSELSEEEQKEIKEAEEKLVRTILKYVEEAAK
# B2: V102S (designed binder)
# chain: B1 chain with N56K, V102S
# B3: L75W (designed binder)
# chain: B1 chain with N56K, L75W
# B4: E78V (designed binder)
# chain: B1 chain with N56K, E78V
# B5: E103H (designed binder)
# chain: B1 chain with N56K, E103H
# B6: Y50E (designed binder)
# chain: B1 chain with Y50E, N56K
# B7: E49H (designed binder)
# chain: B1 chain with E49H, N56K
# B8: E60M (designed binder)
# chain: B1 chain with N56K, E60M
# B9: A36R (designed binder)
# chain: B1 chain with A36R, N56K
# B10: E72D (designed binder)
# chain: B1 chain with N56K, E72D
# B11: A51Y (designed binder)
# chain: B1 chain with A51Y, N56K
# B12: V102Y (designed binder)
# chain: B1 chain with N56K, V102Y
# B13: A51D (designed binder)
# chain: B1 chain with A51D, N56K
# B14: I87E (designed binder)
# chain: B1 chain with N56K, I87E
# B15: K17C (designed binder)
# chain: B1 chain with K17C, N56K
# B16: E44G (designed binder)
# chain: B1 chain with E44G, N56K
# B17: E34Y (designed binder)
# chain: B1 chain with E34Y, N56K
# B18: H24G (designed binder)
# chain: B1 chain with H24G, N56K
# B19: E5V (designed binder)
# chain: B1 chain with E5V, N56K
# B20: E92S (designed binder)
# chain: B1 chain with N56K, E92S
# B21: E22Y (designed binder)
# chain: B1 chain with E22Y, N56K
# B22: I98T (designed binder)
# chain: B1 chain with N56K, I98T
# B23: D32I (designed binder)
# chain: B1 chain with D32I, N56K
# B24: S1V (designed binder)
# chain: B1 chain with S1V, N56K
# B25: K11N (designed binder)
# chain: B1 chain with K11N, N56K
# B26: L76T (designed binder)
# chain: B1 chain with N56K, L76T
# B27: K23S (designed binder)
# chain: B1 chain with K23S, N56K
# B28: E91C (designed binder)
# chain: B1 chain with N56K, E91C
# B29: E62T (designed binder)
# chain: B1 chain with N56K, E62T
# B30: E54I (designed binder)
# chain: B1 chain with E54I, N56K
# B31: E26Y (designed binder)
# chain: B1 chain with E26Y, N56K
# B32: R65G (designed binder)
# chain: B1 chain with N56K, R65G
# B33: L99A (designed binder)
# chain: B1 chain with N56K, L99A
# B34: D53Q (designed binder)
# chain: B1 chain with D53Q, N56K
# B35: K71C (designed binder)
# chain: B1 chain with N56K, K71C
# B36: E54M (designed binder)
# chain: B1 chain with E54M, N56K
# B37: A55I (designed binder)
# chain: B1 chain with A55I, N56K
# B38: E62M (designed binder)
# chain: B1 chain with N56K, E62M
# B39: A63M (designed binder)
# chain: B1 chain with N56K, A63M
# B40: K17W (designed binder)
# chain: B1 chain with K17W, N56K
# B41: K56E (designed binder)
# chain: B1 chain with N56E
# B42: E82Y (designed binder)
# chain: B1 chain with N56K, E82Y
# B43: L75V (designed binder)
# chain: B1 chain with N56K, L75V
# B44: V102N (designed binder)
# chain: B1 chain with N56K, V102N
# B45: L99Y (designed binder)
# chain: B1 chain with N56K, L99Y
# B46: K85W (designed binder)
# chain: B1 chain with N56K, K85W
# B47: I98N (designed binder)
# chain: B1 chain with N56K, I98N
# B48: R38P (designed binder)
# chain: B1 chain with R38P, N56K
# B49: L40M (designed binder)
# chain: B1 chain with L40M, N56K
# B50: V6P (designed binder)
# chain: B1 chain with V6P, N56K
# B51: K23R (designed binder)
# chain: B1 chain with K23R, N56K
# B52: K69D (designed binder)
# chain: B1 chain with N56K, K69D
# B53: V6D (designed binder)
# chain: B1 chain with V6D, N56K
# B54: K18P (designed binder)
# chain: B1 chain with K18P, N56K
# B55: K93I (designed binder)
# chain: B1 chain with N56K, K93I
# B56: E60Q (designed binder)
# chain: B1 chain with N56K, E60Q
# B57: L25N (designed binder)
# chain: B1 chain with L25N, N56K
# B58: E92F (designed binder)
# chain: B1 chain with N56K, E92F
# B59: E37P (designed binder)
# chain: B1 chain with E37P, N56K
# Target: T1, TNFR1
# Experiment: yeast display SC50
row,apparent Kd (screen) [nM],Binder
1,4.39,B1
2,0.446,B2
3,0.446,B3
4,0.593,B4
5,0.446,B5
6,9.41,B6
7,10.4,B7
8,0.49,B8
9,0.718,B9
10,1.4,B10
11,0.49,B11
12,2.73,B12
13,12.5,B13
14,9.41,B14
15,2.73,B15
16,2.48,B16
17,0.539,B17
18,0.718,B18
19,1.27,B19
20,7.07,B20

row,apparent Kd (screen) [nM],Binder
1,1.27,B21
2,15.2,B22
3,4.83,B23
4,0.869,B24
5,0.446,B25
6,0.653,B26
7,0.49,B27
8,13.8,B28
9,1.54,B29
10,13.8,B30
11,0.869,B31
12,0.956,B32
13,16.7,B33
14,2.05,B34
15,0.446,B35
16,2.48,B36
17,3,B37
18,0.446,B38
19,9.41,B39
20,1.16,B40

row,apparent Kd (screen) [nM],Binder
1,1.86,B41
2,0.653,B42
3,0.446,B43
4,0.446,B44
5,9.41,B45
6,0.446,B46
7,5.84,B47
8,11.4,B48
9,0.593,B49
10,0.446,B50
11,0.49,B51
12,1.4,B52
13,13.8,B53
14,5.84,B54
15,1.69,B55
16,1.05,B56
17,0.539,B57
18,13.8,B58
19,0.49,B59
